In patent US20240118272A1:

Tests used:
[1] = molecular target: CD63(ECD)-ALP conjugate (human; bovine); assay: HI-1000 capture immunoassay; calibrator C5, 1563 ng/mL; run 3
[2] = molecular target: CD63(ECD)-ALP conjugate (human; bovine); assay: HI-1000 capture immunoassay; calibrator C3, 62.5 ng/mL; run 2
[3] = molecular target: CD63(ECD)-ALP conjugate (human; bovine); assay: HI-1000 capture immunoassay; calibrator C4, 91.36 mU/L; mean of 3
[4] = molecular target: CD63(ECD)-ALP conjugate (human; bovine); assay: HI-1000 capture immunoassay; calibrator C5, 365.43 mU/L; run 2
[5] = molecular target: CD63(ECD)-ALP conjugate (human; bovine); assay: HI-1000 capture immunoassay; calibrator C1, 1.43 mU/L; run 1
[6] = molecular target: CD63(ECD)-ALP conjugate (human; bovine); assay: HI-1000 capture immunoassay; calibrator C1, 2.5 ng/mL; run 3
[7] = molecular target: CD63(ECD)-ALP conjugate (human; bovine); assay: HI-1000 capture immunoassay; calibrator C2, 5.71 mU/L; run 2
[8] = molecular target: CD63(ECD)-ALP conjugate (human; bovine); assay: HI-1000 capture immunoassay; calibrator C4, 91.36 mU/L; run 1
[9] = molecular target: CD63(ECD)-ALP conjugate (human; bovine); assay: HI-1000 capture immunoassay; calibrator C4, 313 ng/mL; mean of 3
[10] = molecular target: CD63(ECD)-ALP conjugate (human; bovine); assay: HI-1000 capture immunoassay; calibrator C3, 22.84 mU/L; mean of 3
[11] = molecular target: CD63(ECD)-ALP conjugate (human; bovine); assay: HI-1000 capture immunoassay; calibrator C4, 313 ng/mL; run 3
[12] = molecular target: CD63(ECD)-ALP conjugate (human; bovine); assay: HI-1000 capture immunoassay; calibrator C5, 1563 ng/mL; mean of 3
[13] = molecular target: CD63(ECD)-ALP conjugate (human; bovine); assay: HI-1000 capture immunoassay; calibrator C1, 1.43 mU/L; run 3
[14] = molecular target: CD63(ECD)-ALP conjugate (human; bovine); assay: HI-1000 capture immunoassay; calibrator C1, 2.5 ng/mL; mean of 3
[15] = molecular target: CD63(ECD)-ALP conjugate (human; bovine); assay: HI-1000 capture immunoassay; calibrator C5, 1563 ng/mL; run 1
[16] = molecular target: CD63(ECD)-ALP conjugate (human; bovine); assay: HI-1000 capture immunoassay; calibrator C3, 62.5 ng/mL; mean of 3
[17] = molecular target: CD63(ECD)-ALP conjugate (human; bovine); assay: HI-1000 capture immunoassay; calibrator C5, 365.43 mU/L; run 3
[18] = molecular target: CD63(ECD)-ALP conjugate (human; bovine); assay: HI-1000 capture immunoassay; calibrator C3, 22.84 mU/L; run 3
[19] = molecular target: CD63(ECD)-ALP conjugate (human; bovine); assay: HI-1000 capture immunoassay; calibrator C4, 91.36 mU/L; run 3
[20] = molecular target: CD63(ECD)-ALP conjugate (human; bovine); assay: HI-1000 capture immunoassay; calibrator C3, 62.5 ng/mL; run 1
[21] = molecular target: CD63(ECD)-ALP conjugate (human; bovine); assay: HI-1000 capture immunoassay; calibrator C2, 12.5 ng/mL; mean of 3
[22] = molecular target: CD63(ECD)-ALP conjugate (human; bovine); assay: HI-1000 capture immunoassay; calibrator C3, 62.5 ng/mL; run 3
[23] = molecular target: CD63(ECD)-ALP conjugate (human; bovine); assay: HI-1000 capture immunoassay; calibrator C2, 12.5 ng/mL; run 1
[24] = molecular target: CD63(ECD)-ALP conjugate (human; bovine); assay: HI-1000 capture immunoassay; calibrator C2, 5.71 mU/L; mean of 3
[25] = molecular target: CD63(ECD)-ALP conjugate (human; bovine); assay: HI-1000 capture immunoassay; calibrator C1, 2.5 ng/mL; run 2
[26] = molecular target: CD63(ECD)-ALP conjugate (human; bovine); assay: HI-1000 capture immunoassay; calibrator C1, 1.43 mU/L; run 2
[27] = molecular target: CD63(ECD)-ALP conjugate (human; bovine); assay: HI-1000 capture immunoassay; calibrator C4, 91.36 mU/L; run 2
[28] = molecular target: CD63(ECD)-ALP conjugate (human; bovine); assay: HI-1000 capture immunoassay; calibrator C3, 22.84 mU/L; run 1
[29] = molecular target: CD63(ECD)-ALP conjugate (human; bovine); assay: HI-1000 capture immunoassay; calibrator C4, 313 ng/mL; run 1
[30] = molecular target: CD63(ECD)-ALP conjugate (human; bovine); assay: HI-1000 capture immunoassay; calibrator C2, 12.5 ng/mL; run 2
[31] = molecular target: CD63(ECD)-ALP conjugate (human; bovine); assay: HI-1000 capture immunoassay; calibrator C2, 5.71 mU/L; run 1
[32] = molecular target: CD63(ECD)-ALP conjugate (human; bovine); assay: HI-1000 capture immunoassay; calibrator C2, 5.71 mU/L; run 3
[33] = molecular target: CD63(ECD)-ALP conjugate (human; bovine); assay: HI-1000 capture immunoassay; calibrator C1, 2.5 ng/mL; run 1
[34] = molecular target: CD63(ECD)-ALP conjugate (human; bovine); assay: HI-1000 capture immunoassay; calibrator C5, 1563 ng/mL; run 2
[35] = molecular target: CD63(ECD)-ALP conjugate (human; bovine); assay: HI-1000 capture immunoassay; calibrator C5, 365.43 mU/L; run 1
[36] = molecular target: CD63(ECD)-ALP conjugate (human; bovine); assay: HI-1000 capture immunoassay; calibrator C4, 313 ng/mL; run 2
[37] = molecular target: CD63(ECD)-ALP conjugate (human; bovine); assay: HI-1000 capture immunoassay; calibrator C3, 22.84 mU/L; run 2
[38] = molecular target: CD63(ECD)-ALP conjugate (human; bovine); assay: HI-1000 capture immunoassay; calibrator C1, 1.43 mU/L; mean of 3
[39] = molecular target: CD63(ECD)-ALP conjugate (human; bovine); assay: HI-1000 capture immunoassay; calibrator C5, 365.43 mU/L; mean of 3
[40] = molecular target: CD63(ECD)-ALP conjugate (human; bovine); assay: HI-1000 capture immunoassay; calibrator C2, 12.5 ng/mL; run 3

Chain of CD63(ECD)-ALP conjugate (human; bovine) (chain, as listed by the source, chain 1 of 2): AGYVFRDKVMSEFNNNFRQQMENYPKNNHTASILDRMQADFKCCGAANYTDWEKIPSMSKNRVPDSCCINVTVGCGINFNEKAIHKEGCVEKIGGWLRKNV
Chain of CD63(ECD)-ALP conjugate (human; bovine) (P19111 20-506, chain 2 of 2): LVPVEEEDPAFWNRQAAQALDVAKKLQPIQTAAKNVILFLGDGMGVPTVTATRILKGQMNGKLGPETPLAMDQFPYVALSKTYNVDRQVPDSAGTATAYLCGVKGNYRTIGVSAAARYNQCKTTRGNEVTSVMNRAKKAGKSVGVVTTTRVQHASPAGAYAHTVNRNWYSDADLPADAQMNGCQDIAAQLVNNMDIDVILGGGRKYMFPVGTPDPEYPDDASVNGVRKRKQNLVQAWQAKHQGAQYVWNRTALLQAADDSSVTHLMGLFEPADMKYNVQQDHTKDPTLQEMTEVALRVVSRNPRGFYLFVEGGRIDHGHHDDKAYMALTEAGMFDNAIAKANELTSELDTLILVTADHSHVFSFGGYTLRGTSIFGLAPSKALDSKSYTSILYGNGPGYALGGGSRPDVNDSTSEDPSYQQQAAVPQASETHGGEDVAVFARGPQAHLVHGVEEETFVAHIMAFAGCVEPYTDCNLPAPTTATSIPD

Substance: anti-CD63 antibody (Clone: H5C6)
- Count [1]: 213000 count
- Count [2]: 9250 count
- Count value (av) [3]: 42600 count
- Count value [4]: 212000 count
- Count value [5]: 900 count
- Count [6]: 743 count
- Count value [7]: 2380 count
- Count value [8]: 43000 count
- Count (av) [9]: 41900 count
- Count value (av) [10]: 9160 count
- Count [11]: 42800 count
- Count (av) [12]: 212000 count
- Count value [13]: 916 count
- Count (av) [14]: 755 count
- Count [15]: 218000 count
- Count (av) [16]: 8810 count
- Count value [17]: 207000 count
- Count value [18]: 9080 count
- Count value [19]: 42700 count
- Count [20]: 8690 count
- Count (av) [21]: 2180 count
- Count [22]: 8490 count
- Count [23]: 2160 count
- Count value (av) [24]: 2290 count
- Count [25]: 751 count
- Count value [26]: 871 count
- Count value [27]: 42200 count
- Count value [28]: 9140 count
- Count [29]: 41700 count
- Count [30]: 2120 count
- Count value [31]: 2260 count
- Count value [32]: 2240 count
- Count [33]: 770 count
- Count [34]: 205000 count
- Count value [35]: 206000 count
- Count [36]: 41300 count
- Count value [37]: 9240 count
- Count value (av) [38]: 896 count
- Count value (av) [39]: 208000 count
- Count [40]: 2260 count
